Common to all, as to test: SPR
(In general: In SPR one partner is held on a chip, and binding of the other changes the refractive index at the surface.)

Assay [1] concerns the target AglyFc-mut-MBP (aglycosylated, N297A; mouse IgG1 hinge-Fc TT-HN mutant linked via Gly-Ser-Gly-Gly to MBP1–9[4Y]) (mouse | not stated).
The target of assay [2] is AglyFc-WT-MBP (aglycosylated, N297A; mouse IgG1 hinge-Fc linked via Gly-Ser-Gly-Gly to MBP1–9[4Y]) (mouse | not stated).
The target in assay [3] is wild type (WT) mouse hinge-Fc region (mouse IgG1 derived), no MBP epitope attached (mouse).
Assay [4] addresses Fc-WT-MBP (glycosylated; wild type mouse IgG1 hinge-Fc linked via Gly-Ser-Gly-Gly to MBP1–9[4Y]) (mouse | not stated).

For the substance “Recombinant mouse FcRn (from UniProt Q61559 22-365; P01887 21-119) (receptor)”, the KD of the higher affinity interaction site in assay [1] was 19.8 nM; in assay [2] it was 170 nM; in assay [3], 188 nM; in assay [4] it was 212 nM.

For the origin of these results see PMC2738423.
